These are literature values, as cited in patent publication US20140213534A1, “INTESTINAL HYPERPERMEABILITY AND PREVENTION OF SYSTEMIC DISEASE” (Thomas Jefferson University, priority 2011, published 2014).

In this data set the target is ST receptors (Homo sapiens, UniProt P25092). The conditions noted are these: relative to native ST; Currie et al. 1992.
Chain of ST receptors (P25092 24-1073): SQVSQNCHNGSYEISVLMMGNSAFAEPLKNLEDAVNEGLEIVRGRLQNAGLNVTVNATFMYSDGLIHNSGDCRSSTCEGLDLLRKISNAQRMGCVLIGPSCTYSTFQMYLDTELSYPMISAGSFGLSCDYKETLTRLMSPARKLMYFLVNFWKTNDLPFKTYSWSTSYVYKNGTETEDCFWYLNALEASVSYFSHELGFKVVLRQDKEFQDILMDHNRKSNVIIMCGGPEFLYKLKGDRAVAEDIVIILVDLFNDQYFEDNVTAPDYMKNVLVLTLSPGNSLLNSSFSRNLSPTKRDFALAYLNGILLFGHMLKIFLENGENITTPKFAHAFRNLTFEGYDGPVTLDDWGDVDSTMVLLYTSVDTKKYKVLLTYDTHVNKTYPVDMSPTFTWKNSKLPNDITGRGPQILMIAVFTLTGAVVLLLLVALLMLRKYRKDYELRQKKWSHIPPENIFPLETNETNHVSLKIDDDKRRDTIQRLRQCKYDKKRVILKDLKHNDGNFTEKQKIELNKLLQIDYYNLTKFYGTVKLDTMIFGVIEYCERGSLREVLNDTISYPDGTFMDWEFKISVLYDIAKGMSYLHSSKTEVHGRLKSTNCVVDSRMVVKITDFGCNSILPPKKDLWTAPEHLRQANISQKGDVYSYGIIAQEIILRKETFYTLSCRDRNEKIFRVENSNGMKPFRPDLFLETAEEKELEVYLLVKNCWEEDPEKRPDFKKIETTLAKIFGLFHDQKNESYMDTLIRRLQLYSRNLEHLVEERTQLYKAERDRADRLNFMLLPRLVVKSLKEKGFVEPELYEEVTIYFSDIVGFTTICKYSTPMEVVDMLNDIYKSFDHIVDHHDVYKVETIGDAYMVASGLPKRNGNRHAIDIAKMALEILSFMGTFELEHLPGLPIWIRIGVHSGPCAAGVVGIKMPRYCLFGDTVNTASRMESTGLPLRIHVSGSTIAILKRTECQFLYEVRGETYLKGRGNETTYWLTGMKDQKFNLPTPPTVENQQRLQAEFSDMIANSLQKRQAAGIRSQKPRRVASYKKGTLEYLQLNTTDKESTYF

Turning to “Guanylin: 15 amino acid peptide with about 50% sequence homology to ST, identified in mammalian intestine; endogenous GCC agonist (PNTCEICAYAACTGC; Rattus Norvegious)”, the “activates guanylate cyclase at a level fold less than native ST” value was 10- to 100 fold.
